Experimental data: article PMC2894445

Columns and labels:
[1] = biological target: Nup188 (Xenopus laevis (endogenous in Xenopus egg cytosol)); experiment: co-IP
[2] = biological target: Nup205 (Xenopus laevis (endogenous in Xenopus egg cytosol)); experiment: co-IP

percent of Nup93 co-immunoprecipitated [1]: 45%
percent of Nup93 co-immunoprecipitated [2]: 45%
B1: Nup93 (natural protein)
chain: MDGEGFGELLQQAEQLAAETEGVTELPHVERNLQEIQQAGERLRSKTMTRTSQESANVKASVLLGSRGLDISHISQRLESLSAATTFEPLEPVKDTDIQGFLKNEKDNALLSAIEESRKRTFVMAEEYHRESMLVEWEQVKQRVLHTLLASGEDALDFTQESETSYISESGAPGRSSLDNVEMAYARQMYMYNEKVVSGHLQPSLVDLCTEAAERLDDKNVSDLWVMVKQMTDVPLIPASDTLKSRCSGQMQMAFVRQALNYLEQSYKNYTLISVFANLQQAQLGGVPGTYNLVRSFLNIRLPTPIPGLQDGEIEGYPVWALIYYCMRCGDLMAAQQVVNRAQHQLGDFKNCFQEYIHNKDRRLSPTTENKLRLHYRRAVRASTDPYKRAVYCIIGRCDVSDNHSEVADKTEDYLWLKLSQVCFEDEANSSPQDRLTLPQFQKQLFEDYGESHFAVNQQPYLYFQVLFLTAQFEAAIAFLFRLERTRCHAVHVALALFELKLLLKSTGQSAQLLSQEPGEPQGVRRLNFIRLLMLYTRKFEPTDPREALQYFYFLRNEKDNQGESMFLRCVSELVIESREFDMLLGKLEKDGSRKPGAIDKFTRDTKTIINKVASVAENKGLFEEAAKLYDLAKNPDKVLELTNKLLSPVVSQISAPQSNRERLKNMALAIAERYKSQGVSAEKSINSTFYLLLDLITFFDEYHAGHIDLSFDVIERLKLVPLSQDSVEERVAAFRNFSDEIRHNLSEILLATMNILFTQYKRLKGSGPTTLGRPQRVQEDKDSVLRSQARALITFAGMIPYRMSGDTNARLVQMEVLMN
